Assay results reported in patent US20210032664, “ENGINEERED MEGANUCLEASES WITH RECOGNITION SEQUENCES FOUND IN THE HUMAN BETA-2 MICROGLOBULIN GENE” (Precision Biosciences, Inc., published 2021).
Substitutions are numbered along the chain they refer to. Numbers in names are those of the source.

What was measured:
Assay in all cases: cell_activity; human T cells, 1 ug mRNA, day 3
Details in all cases: tags: N-terminal SV40 NLS
B2M 13-14x.281 = biological target: T1, B2M 13-14x.281 (Artificial Sequence)
T1 chain: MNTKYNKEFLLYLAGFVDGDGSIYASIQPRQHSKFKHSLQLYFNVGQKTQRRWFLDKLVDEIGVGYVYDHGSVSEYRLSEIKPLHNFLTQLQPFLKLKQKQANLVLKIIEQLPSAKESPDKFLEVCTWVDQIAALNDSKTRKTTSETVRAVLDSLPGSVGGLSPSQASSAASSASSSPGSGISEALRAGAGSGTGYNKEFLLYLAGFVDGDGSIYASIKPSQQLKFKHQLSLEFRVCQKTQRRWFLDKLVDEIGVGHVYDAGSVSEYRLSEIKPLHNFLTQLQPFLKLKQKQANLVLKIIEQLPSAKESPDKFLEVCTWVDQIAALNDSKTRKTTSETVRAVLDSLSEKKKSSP
Procedure: (§1) Donor human T cells were stimulated with anti-CD3 and anti-CD28 antibodies for 3 days, then electroporated with mRNA encoding a given B2M 13-14 meganuclease (1 μg) using the Amaxa 4D-Nucleofector (Lonza) according to the manufacturer's instructions. To look for the loss of B2M surface expression, cells were stained with an antibody recognizing β-2 microglobulin (BD Biosciences) as well as an antibody recognizing CD3 (BioLegend), a marker of T cells.

B2M 13-14x.202 = biological target: T2, B2M 13-14x.202 (Artificial Sequence)
T2 chain: T1 chain with H32A, S33A, S38T, S221N, Q223T, Q229A, C237A, A261F
Procedure: as §1

B2M 13-14x.286 = biological target: T3, B2M 13-14x.286 (Artificial Sequence)
T3 chain: T1 chain with S221M, Q223P, Q229G, S231T, C237S, A261F
Procedure: as §1

B2M 13-14x.285 = biological target: T4, B2M 13-14x.285 (Artificial Sequence)
T4 chain: T1 chain with S217C, Q223A, Q229Y, S231V, C237F, A261N, E266D
Procedure: as §1

B2M 13-14x.465 = biological target: T5, B2M 13-14x.465 (Artificial Sequence)
T5 chain: T1 chain with H32A, S33A, S38T, S221G, Q223C, Q229A, S231Y, C237T, A261T, E266D
Procedure: as §1

B2M 13-14x.371 = biological target: T6, B2M 13-14x.371 (Artificial Sequence)
T6 chain: T1 chain with S217M, S221G, Q223S, Q229Y, C237V, E266Y
Procedure: as §1

B2M 13-14x.378 = biological target: T7, B2M 13-14x.378 (Artificial Sequence)
T7 chain: T1 chain with H32A, S33A, S38T, S221G, Q223N, Q229N, S231F, C237S, E266D
Procedure: as §1

B1: B2M 13-14 recognition sequence (dsDNA)
DNA 1: CTATCTCTTGTACTACACTGAA
DNA 2: TTCAGTGTAGTACAAGAGATAG
B2M 13-14x.281
  activity: 53.6 % B2M-negative
B2M 13-14x.202
  activity: 60.9 % B2M-negative
B2M 13-14x.286
  activity: 44.6 % B2M-negative
B2M 13-14x.285
  activity: 22 % B2M-negative
B2M 13-14x.465
  activity: 30.8 % B2M-negative
B2M 13-14x.371
  activity: 22.6 % B2M-negative
B2M 13-14x.378
  activity: 3.54 % B2M-negative
